According to patent US20240301054A1, “TIM-3 INHIBITORS AND USES THEREOF” (Novartis AG, priority 2019, published 2024):

Target: T1, interaction between TIM-3 and Galectin-9 (Homo sapiens, UniProt Q8TDQ0)
T1 construct: purchased R&D Systems
Test: Plate-based (MesoScale) competition assay of the TIM-3/Galectin-9 interaction
Format: binding
Conditions: TIM-3 fusion protein coated at 2 μg/ml; SULFOTag Galectin-9 100 nM; FIG. 1
Description: TIM-3 fusion protein (R&D Systems) was coated on a standard MesoScale 96 well plate (Meso Scale Discovery) at 2 μg/ml in PBS (Phosphate Buffered Saline) and incubated for six hours at room temperature. The plate was washed three times with PBST (PBS buffer containing 0.05% Tween-20) and blocked with PBS containing 5% Probumin (Millipore) overnight at 4° C. After incubation, the plate was washed three times with PBST and unlabeled antibody (F38-2E2 (BioLegend); MBG453; MBG453 F(ab′)2; MBG453 F(ab); or control recombinant human Galectin-9 protein) diluted in Assay Diluent (2% Probumin, 0.1% Tween-20, 0.1% Triton X-100 (Sigma) with 10% StabilGuard (SurModics)), was added in serial dilutions to the plate and incubated for one hour on an orbital shaker at room temperature. The plate was then washed three times with PBST, and Galectin-9 labeled with MSD SULFOTag (Meso Scale Discovery) as per manufacturer's instructions, diluted in Assay Diluent to 100 nM, was added to the plate for one hour at room temperature on an orbital shaker. The plate was again washed three times with PBST, and Read Buffer T (1×) was added to the plate. The plate was read on MA600 Imager, and competition was assessed as a measure of the ability of the antibody to block Ga19-SULFOTag signal to TIM-3 receptor.

B1: control Galectin-9 protein: control recombinant human Galectin-9 protein, unlabeled (protein)
chain: AFSGSQAPYLSPAVPFSGTIQGGLQDGLQITVNGTVLSSSGTRFAVNFQTGFSGNDIAFHFNPRFEDGGYVVCNTRQNGSWGPEERKTHMPFQKGMPFDLCFLVQSSDFKVMVNGILFVQYFHRVPFHRVDTISVNGSVQLSYISFQPPGVWPANPAPITQTVIHTVQSAPGQMFSTPAIPPMMYPHPAYPMPFITTILGGLYPSKSILLSGTVLPSAQRFHINLCSGNHIAFHLNPRFDENAVVRNTQIDNSWGSEERSLPRKMPFVRGQSFSVWILCEAHCLKVAVDGQHLFEYYHRLRNLPTINRLEVGGDIQLTHVQT
Q: For B1, which “ability of the antibody to block Ga19-SULFOTag signal to TIM-3 receptor (interaction between TIM-3 and Galectin-9)” value is on record?
A: did not
